From FireProtDB (doi:10.1021/bi00118a013)

B1: Guanyl-specific ribonuclease T1, P00651 (parent)
chain: MMYSKLLTLTTLLLPTALALPSLVERACDYTCGSNCYSSSDVSTAQAAGYQLHEDGETVGSNSYPHKYNNYEGFDFSVSSPYYEWPILSSGDVYSGGSPGADRVVFNENNQLAGVITHTGASGNNFVECT

Variants of: B1
Conditions: Aspergillus oryzae (strain ATCC 42149 / RIB 40), pH 7, Fluorescence, MOPS 30 mM, reversible: yes, structure 1RN1, whole UniProt chain shown

Variant	ddG of mutation (higher = less stable) (25 °C, Urea) [kcal/mol]	denaturant m value (25 °C, Urea) [kcal/mol/M]	denaturant midpoint (higher = more stable) (25 °C, Urea) [M]	ddG of mutation (higher = less stable) (50.9 °C, Thermal) [kcal/mol]	Tm (Thermal) [°C]	change of melting temperature, mutant - wild type (higher = more stable) (Thermal) [°C]	unfolding enthalpy (van 't Hoff) (Thermal) [kcal/mol]
MMYSKLLTLTTLLLPTALALPSLVERACDYTCGSNCYSSSDVSTAQAAGYQLHEDGETVGSNSYPHKYNNYEGFDFSVSSPYYEWPILSAGDVYSGGSPGADRVVFNENNQLAGVITHTGASGNNFVECT [S90A]	1.44	1.38	4.11	1.56	–	–	–
MMYSKLLTLTTLLLPTALALPSLVERACDYTCGSNCYSSSDVSTAQAAGYQLHEDGETVGSASYPHKYNNYEGFDFSVSSPYYEWPILSSGDVYSGGSPGADRVVFNENNQLAGVITHTGASGNNFVECT [N62A]	-0.03	1.31	5.31	0	50.9	0	111
MMYSKLLTLTTLLLPTALALPSLVERACDYTCGSNCYSSSDVSTAQAAGYQLHEDGETVGSNSYPHKYNNYEGFDFSVSSPYFEWPILSSGDVYSGGSPGADRVVFNENNQLAGVITHTGASGNNFVECT [Y83F]	0.5	1.29	4.88	0.44	–	–	–
MMYSKLLTLTTLLLPTALALPSLVERACDYTCGSNCYSSSDVATAQAAGYQLHEDGETVGSNSYPHKYNNYEGFDFSVSSPYYEWPILSSGDVYSGGSPGADRVVFNENNQLAGVITHTGASGNNFVECT [S43A]	–	–	–	-0.57	52.6	1.7	109
MMYSKLLTLTTLLLPTALALPSLVERACDYTCGSNCYSSSDVSTAQAAGYQLHEDGETVGSNSYPHKYNNYEGFDFSVSSPFYEWPILSSGDVYSGGSPGADRVVFNENNQLAGVITHTGASGNNFVECT [Y82F]	0.78	1.26	4.65	0.71	48.8	-2.1	99
MMYSKLLTLTTLLLPTALALPSLVERACDYTCGSNCYSSSDVSTAQAAGYQLHEDGETVGSNSYPHKFNNYEGFDFSVSSPYYEWPILSSGDVYSGGSPGADRVVFNENNQLAGVITHTGASGNNFVECT [Y68F]	-1.14	1.17	6.24	-1.15	54.3	3.4	106
MMYSKLLTLTTLLLPTALALPSLVERACDYTCGSNCFSSSDVSTAQAAGYQLHEDGETVGSNSYPHKYNNYEGFDFSVSSPYYEWPILSSGDVYSGGSPGADRVVFNENNQLAGVITHTGASGNNFVECT [Y37F]	2.11	1.27	3.56	2.03	44.9	-6	101
MMYSKLLTLTTLLLPTALALPSLVERACDYTCGSNCYSSSDVSTAQAAGYQLHEDGETVGSNSYPHKYNAYEGFDFSVSSPYYEWPILSSGDVYSGGSPGADRVVFNENNQLAGVITHTGASGNNFVECT [N70A]	2.08	1.3	3.59	–	–	–	–
MMYSKLLTLTTLLLPTALALPSLVERACDYTCGSNCYASSDVSTAQAAGYQLHEDGETVGSNSYPHKYNNYEGFDFSVSSPYYEWPILSSGDVYSGGSPGADRVVFNENNQLAGVITHTGASGNNFVECT [S38A]	1.23	1.28	4.29	1.08	47.7	-3.2	99
MMYSKLLTLTTLLLPTALALPSLVERACDYTCGSNCYSSSDVSTAQAAGYQLHEDGETVGSNSYPHKYNNYEGFDFSVSSPYYEWPILSSGDVYSGGSPGADRVVFAENNQLAGVITHTGASGNNFVECT [N107A]	2.87	1.44	2.92	2.91	42.3	-8.6	91
MMYSKLLTLTTLLLPTALALPSLVERACDYTCGSACYSSSDVSTAQAAGYQLHEDGETVGSNSYPHKYNNYEGFDFSVSSPYYEWPILSSGDVYSGGSPGADRVVFNENNQLAGVITHTGASGNNFVECT [N35A]	0.9	1.28	4.56	0.71	48.8	-2.1	101
MMYSKLLTLTTLLLPTALALPSLVERACDYTCGSNCYSSSDVSTAQAAGYQLHEDGETVGSNSYPHKYNNYEGFDFSVSSPYYEWPILSSGDVFSGGSPGADRVVFNENNQLAGVITHTGASGNNFVECT [Y94F]	1.36	1.32	4.17	1.35	46.9	-4	89
